Experimental findings from article PMC6050537, “Inhibition of low-density lipoprotein receptor degradation with a cyclic peptide that disrupts the homodimerization of IDOL E3 ubiquitin ligase† †Electronic supplementary information (ESI) available. See DOI: 10.1039/c8sc01186a” (Chemical Science, 2018) are described below.

Test [1] addresses T1, Full length IDOL (1–445) (UniProt Q8WY64 1-445, NT-647-NHS dye (only the labelled copy in the MST assays)). Put plainly: cell-based or functional assay.
Test [2] addresses T1, Full length IDOL (1–445). Put plainly: MST; Monolith NT.115; 6× His IDOL labelled with NT-647-NHS dye at 50 nM, peptides titrated; 10 mM HEPES, 300 mM NaCl, 1 mM TCEP, 0.05% TWEEN-20, pH 8.0, 5% DMSO. The conditions noted are these: both partners purified.

B1: RINGPep2 (cyclo-CF-Cha-LYT) (peptide)
chain: CFXLYT
HELM: PEPTIDE1{C.F.[Cha].L.Y.T}$PEPTIDE1,PEPTIDE1,1:R1-6:R2$$$V2.0
SMILES: CC(C)C[C@@H]1NC(=O)[C@H](CC2CCCCC2)NC(=O)[C@H](Cc2ccccc2)NC(=O)[C@H](CS)NC(=O)[C@H]([C@@H](C)O)NC(=O)[C@H](Cc2ccc(O)cc2)NC1=O
One may read the Kd as the free concentration of one partner at which half of the binding sites on the other are occupied at equilibrium, for simple one-to-one binding. Higher therefore signals lower affinity. On to B1, for which, in test [1], the “EC50 of Tat-RINGPep2 (0–35 μM) on LDLR protein levels in HepG2 cells; blocks IDOL homodimerization” value was 15 to 20 µM. The Kd in test [2] amounted to 4.6 µM.
